Results reported in publication PMC13630248 (PLOS Biology, 2026).

B1: V1WT_06 IgG (antibody, V domains shown)
VH: EVQLVQSGAEVKKPGASVKVSCKASGYTFSSHGISWVRQAPGQGLEWMGWISTYNGNTNSAQNLQGRVTMTADTSTSTAYMELRSLRSDDTAVYYCARGPWGYCSGTSCYYWTPDNPAYSYHGMDVWGQGTTVTVSS
VL: not shown
notes: copies: 2 + 2
B2: V1WT_06 Fab (Fab, V domains shown)
VH: B1 VH
VL: not shown
B3: V1WT_41 IgG (antibody, V domains shown)
VH: QVQLQESGPGLVKPSETVSVTCTVSGGSITRSNYYWGWIRQPPGKGLEWIGSIFYNGNTNYNPSLKSRLTISVDTSKNQFSLKLSSVTAADTAVYYCARTAPYYYDRSGYYQKEEYFQRWGQGTLVTVSS
VL: EIVMTQSPSTLSASVGDRVTITCRASQSISTWLAWYQQKPGKAPNLLIYQASSLESGVPSRFSGSGSGTEFTLTISSLQPDDFATYYCQQYNNYPRTFGQGTKLEIK
notes: copies: 2 + 2
B4: VA14_26 IgG (antibody, V domains shown)
VH: QVQLQQWGAGLLKPSDTLSLTCGISGGPFSGYYWSWIRQPPGKGLEWLGEINHSGITTYNPSLKSRGTISVDTSKRQISLKLASVTAADTAVYYCARFAYGDYGWDYSSDMDVWGKGTTVTVSS
VL: DIQLTQSPSTLSASVGDRVTITCRASQSISTWLAWHQQIPGKAPKLLIYRASTLQSGVPSRFSGSGSGTEFTLTISSLQPDDFATYYCQQYYSVRTFGQGTKVDIK
notes: copies: 2 + 2

Legend:
[1] = molecular target: RpYN06 Spike, full-length, on the cell surface (Betacoronavirus sp. RpYN06, strain …, strain); assay: flow cytometry on cells; conditions: one partner purified
[2] = molecular target: T1, SARS-CoV-2 RBD (recombinant receptor binding domain of Spike) (SARS-CoV-2, UniProt P0DTC2); assay: ELISA; conditions: both partners purified
[3] = molecular target: T1, SARS-CoV-2 RBD (recombinant receptor …); assay: SPR; conditions: both partners purified

Binder | binding result [1] | binding result [2] | binding result [3]
B1 | binds |  | 
B2 |  | binds | 
B3 | binds | binds | 
B4 | binds |  | binds
